This is an account of results in patent US20170114130A1 (University of California, published 2017).

The target of assay [1] is human IL-2 (recombinant IL-2, Humanzyme) (human) (UniProt P60568). The assay is described as follows: SPR (Biacore T200), antibody captured on anti-mouse IgG, IL-2 injected, 25 C, 1:1 Langmuir fit. For orientation: SPR reads the build-up and loss of mass on a sensor chip optically.
Assay [2] deals with recombinant cynomolgus monkey (Macaca fascicularis) IL-2 (cynomolgus monkey (Macaca fascicularis)) (UniProt Q29615). The assay is described as follows: SPR as in Example 1, cynomolgus IL-2 1-100 nM, 1:1 Langmuir or steady-state fit.
Sequence of recombinant cynomolgus monkey (Macaca fascicularis) IL-2 (cynomolgus monkey (Macaca fascicularis)) (Q29615 21-154 limits assumed): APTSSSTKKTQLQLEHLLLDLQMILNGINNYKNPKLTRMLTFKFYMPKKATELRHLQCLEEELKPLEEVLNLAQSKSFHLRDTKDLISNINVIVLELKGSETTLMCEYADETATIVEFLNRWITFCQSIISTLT
Assay [3] addresses human IL-2 (recombinant IL-2, Humanzyme) (human) (UniProt P60568). The assay is described as follows: SPR (Biacore T200), antibody captured on anti-mouse IgG, IL-2 injected; off-rate outside the specifications of the instrument, assumed limit.
Assay [4] shares this target. The assay is described as follows: SPR (Biacore T200), antibody captured on anti-mouse IgG, IL-2 injected; calculated with the assumed off-rate limit.
For assay [5] the target is unchanged. The assay is described as follows: SPR, human IL-2; the value repeats Table 3 (assumed off-rate limit).
In another assay the target is T1, IL-2/F5.1.11 Fab complex (human, UniProt P60568 21-153).
T1 construct: also called F5.1.11/IL-2
T1 sequence (VH, as listed by the source limits assumed, chain 1 of 3): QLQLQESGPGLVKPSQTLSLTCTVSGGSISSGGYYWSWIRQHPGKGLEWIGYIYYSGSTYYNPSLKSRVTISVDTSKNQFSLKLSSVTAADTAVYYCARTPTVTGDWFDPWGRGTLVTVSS
T1 sequence (VL, as listed by the source limits assumed, chain 2 of 3): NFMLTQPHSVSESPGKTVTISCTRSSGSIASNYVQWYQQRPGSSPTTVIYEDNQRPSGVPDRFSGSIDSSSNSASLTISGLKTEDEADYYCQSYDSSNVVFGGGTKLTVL
T1 sequence (P60568 21-153 limits assumed, chain 3 of 3): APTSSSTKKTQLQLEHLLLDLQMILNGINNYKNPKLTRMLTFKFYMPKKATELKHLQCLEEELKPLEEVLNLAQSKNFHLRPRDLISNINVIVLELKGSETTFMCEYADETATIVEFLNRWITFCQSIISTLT
Description: SPR (Biacore T200), 1-500 nM IL-2 pre-complexed with excess Fab over biotinylated IL-2Rα, equilibrium analysis. How it is done:
Experiments were performed at 25° C. using a 10 μL/minute flow rate in 10 mM HEPES (pH7.4), 150 mM NaCl and 0.005% v/v Surfactant P20 buffer. […] Data was background subtracted using the adjacent control flow cell and buffer only injections. The affinity of the interaction was calculated from concentration-response relationship at equilibrium.

The target in a further assay is T2, d1C7/IL-2 complex (human, UniProt P60568 21-153).
T2 construct: Non-covalent complex: IL-2 (333 nM) pre-incubated with d1C7 IgG (1000 nM) for at least 20 minutes; also called clone d1C7/IL-2 complex
T2 sequence (VH, as listed by the source limits assumed, chain 1 of 3): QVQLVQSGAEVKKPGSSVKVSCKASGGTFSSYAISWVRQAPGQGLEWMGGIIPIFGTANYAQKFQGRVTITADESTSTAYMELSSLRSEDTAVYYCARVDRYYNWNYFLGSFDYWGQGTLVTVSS
T2 sequence (VL, as listed by the source limits assumed, chain 2 of 3): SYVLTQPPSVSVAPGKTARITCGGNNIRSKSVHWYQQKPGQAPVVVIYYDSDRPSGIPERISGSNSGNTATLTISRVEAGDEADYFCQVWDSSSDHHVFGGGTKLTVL
T2 sequence (P60568 21-153 limits assumed, chain 3 of 3): as the sequence (P60568 21-153 limits assumed, chain 3 of 3) above
The assay is described as follows: SPR (Biacore T200), complex injected over biotinylated receptor on streptavidin chip. How it is done:
Experiments were performed at 25° C. using a 10 μL/minute flow rate in 10 mM HEPES (pH 7.4), 150 mM NaCl and 0.005% v/v Surfactant P20 buffer. […] Data was background subtracted using the adjacent control flow cell and buffer only injections.

Sequence of human IL-2 (recombinant IL-2, Humanzyme) (human) (P60568 21-153 limits assumed): as the sequence (P60568 21-153 limits assumed, chain 3 of 3) above

As to “mouse anti-human IL-2 clone 5344 (clone 5344.111, BD Biosciences) (antibody)”, the kon (as a rule, a measure of how fast the partners come together) in assay [1] stood at 1.02e+06 M⁻¹ s⁻¹. Besides, the results for the Kd in assay [2], in assay [4] and in assay [5] were greater than 50 nM, less than 0.05 nM and less than 0.05 nM, respectively. The koff (in general, the rate constant with which the complex falls apart) in assay [3] is less than 5e-05 s⁻¹.

B1: recombinant IL-2Rα, biotin labeled (receptor, UniProt P01589 22-240, looked up)
chain: ELCDDDPPEIPHATFKAMAYKEGTMLNCECKRGFRRIKSGSLYMLCTGNSSHSSWDNQCQCTSSATRNTTKQVTPQPEEQKERKTTEMQSPMQPVDQASLPGHCREPPPWENEATERIYHFVVGQMVYYQCVQGYRALHRGPAESVCKMTHGKTRWTQPQLICTGEMETSQFPGEEKPQASPEGRPESETSCLVTTTDFQIQTEMAATMETSIFTTEYQ
modifications: biotin labeled (site not stated)
notes: also called IL-2α; IL-2a
For the molecule B1, binding with IL-2/F5.1.11 Fab complex was put at a Kd of 70.1 nM.

B2: recombinant IL-2Rβ, biotin labeled (receptor, UniProt P14784 27-240, looked up)
chain: AVNGTSQFTCFYNSRANISCVWSQDGALQDTSCQVHAWPDRRRWNQTCELLPVSQASWACNLILGAPDSQKLTTVDIVTLRVLCREGVRWRVMAIQDFKPFENLRLMAPISLQVVHVETHRCNISWEISQASHYFERHLEFEARTLSPGHTWEEAPLLTLKQKQEWICLETLTPDTQYEFQVRVKPLQGEFTTWSPWSQPLAFRTKPAALGKDT
modifications: biotin labeled (site not stated)
notes: also called CD122
Regarding B2, in the assay with d1C7/IL-2 complex, the binding result is “no binding (tested: IL-2 333 nM with IgG 1000 nM)”.
